Values of other authors in publication PMC3022542.
Read-outs that look alike come from different tables or passages of the source.

Legend:
[1] = target: importin α5 (Homo sapiens) (UniProt P52294); assay: isothermal titration calorimetry
[2] = target: importin α5 (Homo sapiens) (UniProt P52294); assay: isothermal titration calorimetry; remark: listed apart in the source

UniProt P52294, sequence (P52294 whole entry): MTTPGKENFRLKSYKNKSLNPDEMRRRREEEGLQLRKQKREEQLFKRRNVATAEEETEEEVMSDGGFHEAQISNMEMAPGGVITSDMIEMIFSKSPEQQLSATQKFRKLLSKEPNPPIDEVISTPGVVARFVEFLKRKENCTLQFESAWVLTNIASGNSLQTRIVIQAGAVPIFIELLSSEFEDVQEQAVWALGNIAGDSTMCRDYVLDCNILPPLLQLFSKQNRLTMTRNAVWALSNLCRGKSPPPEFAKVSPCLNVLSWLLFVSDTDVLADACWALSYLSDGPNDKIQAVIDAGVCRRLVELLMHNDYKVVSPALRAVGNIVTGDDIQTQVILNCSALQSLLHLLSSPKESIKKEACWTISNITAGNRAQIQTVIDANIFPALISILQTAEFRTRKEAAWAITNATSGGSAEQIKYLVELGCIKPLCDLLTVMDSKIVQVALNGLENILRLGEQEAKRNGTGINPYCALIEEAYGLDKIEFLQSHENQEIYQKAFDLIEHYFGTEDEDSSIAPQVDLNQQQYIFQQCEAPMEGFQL

In the case of “EBNA-1 NLS peptide NLS (from UniProt P03211)”, the Kd [1] is listed as 60 µM and the Kd [2] is listed as 3 µM.
